Measured values taken from paper PMC7103410.

Biological target: M116, the C-terminal 116 amino acids of SARS-CoV membrane (M) protein (recombinant cytoplasmic region) (SARS-CoV)
Assay: SPR

Work on N peptide 101–115 yielded a Kd of 0.73 µM.
